# B1: Protein BRASSINAZOLE-RESISTANT 1 (Arabidopsis thaliana (Mouse-ear cress)), Q8S307 (parent)
# chain: MTSDGATSTSAAAAAAAAAAARRKPSWRERENNRRRERRRRAVAAKIYTGLRAQGDYNLPKHCDNNEVLKALCVEAGWVVEEDGTTYRKGCKPLPGEIAGTSSRVTPYSSQNQSPLSSAFQSPIPSYQVSPSSSSFPSPSRGEPNNNMSSTFFPFLRNGGIPSSLPSLRISNSCPVTPPVSSPTSKNPKPLPNWESIAKQSMAIAKQSMASFNYPFYAVSAPASPTHRHQFHTPATIPECDESDSSTVDSGHWISFQKFAQQQPFSASMVPTSPTFNLVKPAPQQMSPNTAAFQEIGQSSEFKFENSQVKPWEGERIHDVGMEDLELTLGNGKARG
# partner: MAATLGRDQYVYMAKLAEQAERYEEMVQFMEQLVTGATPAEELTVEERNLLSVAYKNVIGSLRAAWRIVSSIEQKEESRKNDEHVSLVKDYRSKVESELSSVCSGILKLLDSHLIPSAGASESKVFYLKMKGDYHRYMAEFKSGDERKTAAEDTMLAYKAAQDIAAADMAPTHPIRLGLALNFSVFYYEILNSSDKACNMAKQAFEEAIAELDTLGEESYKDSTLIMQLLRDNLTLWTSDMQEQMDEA
# Variants of: B1
# Conditions: with 14336_arath GRF6, P48349
row,Variant,effect of a mutation on the interaction
1,S173A,decreasing interaction
